Measurements taken from patent publication US20210032299A1 (Eli Lilly, published 2021).
Starred links: 1 amine or outer side, 2 acyl side, 3 side chain; linkers in the order of their positions; H or OH if unused. Non-standard residues stand in square brackets, D forms with d. Groups on a side chain read outwards from the residue. No end group written: not given here. *: point of attachment. C20 diacid = O=C(O)CCCCCCCCCCCCCCCCCCC(=O)*; γGlu = O=C(O)[C@H](CCC(=O)[*:2])N[*:1]; αMeF = C[C@](N)(Cc1ccccc1)C(=O)O; 4Pal = N[C@@H](Cc1ccncc1)C(=O)O; αMeL = CC(C)C[C@](C)(N)C(=O)O; Orn = NCCC[C@H](N)C(=O)O; AEEA = NCCOCCOCC(=O)O; Aib = CC(C)(N)C(=O)O

T1: human glucose-dependent insulinotropic polypeptide (GIP) receptor (human, UniProt P48546 22-466)
T1 construct: whole, on cells; Assayed as crude membranes of stably transfected CHO cells; also called hGIPR; human GIP receptor
T1 sequence (looked up): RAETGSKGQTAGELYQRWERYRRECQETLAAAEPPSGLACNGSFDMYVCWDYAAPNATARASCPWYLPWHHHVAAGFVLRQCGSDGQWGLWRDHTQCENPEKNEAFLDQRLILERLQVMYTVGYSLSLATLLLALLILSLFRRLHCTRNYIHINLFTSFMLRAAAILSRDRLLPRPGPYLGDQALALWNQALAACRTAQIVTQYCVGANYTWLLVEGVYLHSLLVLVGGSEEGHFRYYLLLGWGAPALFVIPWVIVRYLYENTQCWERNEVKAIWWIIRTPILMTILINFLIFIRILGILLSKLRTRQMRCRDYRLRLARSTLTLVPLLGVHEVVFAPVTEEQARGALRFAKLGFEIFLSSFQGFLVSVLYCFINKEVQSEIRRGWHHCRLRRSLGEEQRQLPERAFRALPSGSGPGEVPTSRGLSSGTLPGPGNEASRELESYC

B1: Example 73 (peptide)
peptide: Y[Aib]EGTLISDYSI[αMeL]LDKK([AEEA-AEEA-γGlu-C20 diacid])HQ[Aib]EFVEYLLEGGPSSGAPPPS-NH2
modifications: N-terminus assumed
SMILES: CC[C@H](C)[C@H](NC(=O)[C@H](CC(C)C)NC(=O)[C@@H](NC(=O)CNC(=O)[C@H](CCC(=O)O)NC(=O)C(C)(C)NC(=O)[C@@H](N)Cc1ccc(O)cc1)[C@@H](C)O)C(=O)N[C@@H](CO)C(=O)N[C@@H](CC(=O)O)C(=O)N[C@@H](Cc1ccc(O)cc1)C(=O)N[C@@H](CO)C(=O)N[C@H](C(=O)N[C@@](C)(CC(C)C)C(=O)N[C@@H](CC(C)C)C(=O)N[C@@H](CC(=O)O)C(=O)N[C@@H](CCCCN)C(=O)N[C@@H](CCCCNC(=O)COCCOCCNC(=O)COCCOCCNC(=O)CC[C@H](NC(=O)CCCCCCCCCCCCCCCCCCC(=O)O)C(=O)O)C(=O)N[C@@H](Cc1c[nH]cn1)C(=O)N[C@@H](CCC(N)=O)C(=O)NC(C)(C)C(=O)N[C@@H](CCC(=O)O)C(=O)N[C@@H](Cc1ccccc1)C(=O)N[C@H](C(=O)N[C@@H](CCC(=O)O)C(=O)N[C@@H](Cc1ccc(O)cc1)C(=O)N[C@@H](CC(C)C)C(=O)N[C@@H](CC(C)C)C(=O)N[C@@H](CCC(=O)O)C(=O)NCC(=O)NCC(=O)N1CCC[C@H]1C(=O)N[C@@H](CO)C(=O)N[C@@H](CO)C(=O)NCC(=O)N[C@@H](C)C(=O)N1CCC[C@H]1C(=O)N1CCC[C@H]1C(=O)N1CCC[C@H]1C(=O)N[C@@H](CO)C(N)=O)C(C)C)[C@@H](C)CC
B2: Example 56 (peptide)
peptide: Y[Aib]EGTFISDYSI[αMeL]LDKK([AEEA-AEEA-γGlu-C20 diacid])HQ[Aib]D[αMeF]VE[4Pal]LLAGGPSSGAPPPS-NH2
modifications: N-terminus assumed
SMILES: CC[C@H](C)[C@H](NC(=O)[C@H](Cc1ccccc1)NC(=O)[C@@H](NC(=O)CNC(=O)[C@H](CCC(=O)O)NC(=O)C(C)(C)NC(=O)[C@@H](N)Cc1ccc(O)cc1)[C@@H](C)O)C(=O)N[C@@H](CO)C(=O)N[C@@H](CC(=O)O)C(=O)N[C@@H](Cc1ccc(O)cc1)C(=O)N[C@@H](CO)C(=O)N[C@H](C(=O)N[C@@](C)(CC(C)C)C(=O)N[C@@H](CC(C)C)C(=O)N[C@@H](CC(=O)O)C(=O)N[C@@H](CCCCN)C(=O)N[C@@H](CCCCNC(=O)COCCOCCNC(=O)COCCOCCNC(=O)CC[C@H](NC(=O)CCCCCCCCCCCCCCCCCCC(=O)O)C(=O)O)C(=O)N[C@@H](Cc1c[nH]cn1)C(=O)N[C@@H](CCC(N)=O)C(=O)NC(C)(C)C(=O)N[C@@H](CC(=O)O)C(=O)N[C@@](C)(Cc1ccccc1)C(=O)N[C@H](C(=O)N[C@@H](CCC(=O)O)C(=O)N[C@@H](Cc1ccncc1)C(=O)N[C@@H](CC(C)C)C(=O)N[C@@H](CC(C)C)C(=O)N[C@@H](C)C(=O)NCC(=O)NCC(=O)N1CCC[C@H]1C(=O)N[C@@H](CO)C(=O)N[C@@H](CO)C(=O)NCC(=O)N[C@@H](C)C(=O)N1CCC[C@H]1C(=O)N1CCC[C@H]1C(=O)N1CCC[C@H]1C(=O)N[C@@H](CO)C(N)=O)C(C)C)[C@@H](C)CC
B3: Example 81 (peptide)
peptide: Y[Aib]EGTFISDYSI[αMeL]LD[Orn]K([AEEA-AEEA-γGlu-C20 diacid])HQ[Aib]DFVE[4Pal]LLEQGPSSGAPPPS-NH2
modifications: N-terminus assumed
SMILES: CC[C@H](C)[C@H](NC(=O)[C@H](Cc1ccccc1)NC(=O)[C@@H](NC(=O)CNC(=O)[C@H](CCC(=O)O)NC(=O)C(C)(C)NC(=O)[C@@H](N)Cc1ccc(O)cc1)[C@@H](C)O)C(=O)N[C@@H](CO)C(=O)N[C@@H](CC(=O)O)C(=O)N[C@@H](Cc1ccc(O)cc1)C(=O)N[C@@H](CO)C(=O)N[C@H](C(=O)N[C@@](C)(CC(C)C)C(=O)N[C@@H](CC(C)C)C(=O)N[C@@H](CC(=O)O)C(=O)N[C@@H](CCCN)C(=O)N[C@@H](CCCCNC(=O)COCCOCCNC(=O)COCCOCCNC(=O)CC[C@H](NC(=O)CCCCCCCCCCCCCCCCCCC(=O)O)C(=O)O)C(=O)N[C@@H](Cc1c[nH]cn1)C(=O)N[C@@H](CCC(N)=O)C(=O)NC(C)(C)C(=O)N[C@@H](CC(=O)O)C(=O)N[C@@H](Cc1ccccc1)C(=O)N[C@H](C(=O)N[C@@H](CCC(=O)O)C(=O)N[C@@H](Cc1ccncc1)C(=O)N[C@@H](CC(C)C)C(=O)N[C@@H](CC(C)C)C(=O)N[C@@H](CCC(=O)O)C(=O)N[C@@H](CCC(N)=O)C(=O)NCC(=O)N1CCC[C@H]1C(=O)N[C@@H](CO)C(=O)N[C@@H](CO)C(=O)NCC(=O)N[C@@H](C)C(=O)N1CCC[C@H]1C(=O)N1CCC[C@H]1C(=O)N1CCC[C@H]1C(=O)N[C@@H](CO)C(N)=O)C(C)C)[C@@H](C)CC
B4: Example 82 (peptide)
peptide: Y[Aib]EGTFISDYSI[αMeL]LD[Orn]K([AEEA-AEEA-γGlu-C20 diacid])HQ[Aib]DFVE[4Pal]LLEGGPSSGAPPPS-NH2
modifications: N-terminus assumed
SMILES: CC[C@H](C)[C@H](NC(=O)[C@H](Cc1ccccc1)NC(=O)[C@@H](NC(=O)CNC(=O)[C@H](CCC(=O)O)NC(=O)C(C)(C)NC(=O)[C@@H](N)Cc1ccc(O)cc1)[C@@H](C)O)C(=O)N[C@@H](CO)C(=O)N[C@@H](CC(=O)O)C(=O)N[C@@H](Cc1ccc(O)cc1)C(=O)N[C@@H](CO)C(=O)N[C@H](C(=O)N[C@@](C)(CC(C)C)C(=O)N[C@@H](CC(C)C)C(=O)N[C@@H](CC(=O)O)C(=O)N[C@@H](CCCN)C(=O)N[C@@H](CCCCNC(=O)COCCOCCNC(=O)COCCOCCNC(=O)CC[C@H](NC(=O)CCCCCCCCCCCCCCCCCCC(=O)O)C(=O)O)C(=O)N[C@@H](Cc1c[nH]cn1)C(=O)N[C@@H](CCC(N)=O)C(=O)NC(C)(C)C(=O)N[C@@H](CC(=O)O)C(=O)N[C@@H](Cc1ccccc1)C(=O)N[C@H](C(=O)N[C@@H](CCC(=O)O)C(=O)N[C@@H](Cc1ccncc1)C(=O)N[C@@H](CC(C)C)C(=O)N[C@@H](CC(C)C)C(=O)N[C@@H](CCC(=O)O)C(=O)NCC(=O)NCC(=O)N1CCC[C@H]1C(=O)N[C@@H](CO)C(=O)N[C@@H](CO)C(=O)NCC(=O)N[C@@H](C)C(=O)N1CCC[C@H]1C(=O)N1CCC[C@H]1C(=O)N1CCC[C@H]1C(=O)N[C@@H](CO)C(N)=O)C(C)C)[C@@H](C)CC
B5: Example 76 (peptide)
peptide: YXEGTXISDYSIXLDXKHQXDFVEXLLEGGPSSGAPPPS
modifications: Aib2; Iva6; αMeL13; Orn16; K17((2-[2-(2-Amino-ethoxy)-ethoxy]-acetyl)2-(γ-Glu)-CO-(CH2)18-CO2H); Aib20; 4-Pal25; C-terminal amide

These binders were tested against T2, human GLP-1 receptor (human, UniProt P43220 24-463) (assay: SPA, displacement of [125I]-GLP-1 from hGLP-1R membranes, 0.1% bacitracin).
T2 construct: whole, on cells; Assayed as crude membranes of stably transfected HEK293 cells; also called hGLP1R; hGLP-1R
How it was run: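 Binding buffer: 25 mM HEPES pH 7.4, 2.5 mM CaCl₂, 1 mM MgCl₂, 0.1% bacitracin, 0.003% Tween-20, protease inhibitors without EDTA. Four-parameter nonlinear regression; Kᵢ given as geometric mean ± SEM, n = independent replicates run on different days.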

First: B1
Second: B2
The Ki of the first is 4.5-fold lower: 117 nM for the first, 530 nM for the second. The first binds more tightly here.

Going from B3 to B4, the Ki falls from 714 nM to 388 nM (1.8-fold). The second binds more tightly here.

For B5, the Ki was 263 nM.

These binders were tested against T3, human glucagon receptor (human, UniProt P47871 26-477) (assay: SPA, displacement of [125I]-Gcg from hGcgR membranes, 0.1% bacitracin).
T3 construct: whole, on cells; Assayed as crude membranes of stably transfected HEK293 cells; also called hGcgR; GcgR
How it was run: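 Binding buffer: 25 mM HEPES pH 7.4, 2.5 mM CaCl₂, 1 mM MgCl₂, 0.003% Tween-20, protease inhibitors without EDTA. Counted by scintillation after 12 h incubation/settling at room temperature. Four-parameter nonlinear fit; Kᵢ given as geometric mean ± SEM of independent replicates run on different days.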

T3 sequence (P47871 26-477): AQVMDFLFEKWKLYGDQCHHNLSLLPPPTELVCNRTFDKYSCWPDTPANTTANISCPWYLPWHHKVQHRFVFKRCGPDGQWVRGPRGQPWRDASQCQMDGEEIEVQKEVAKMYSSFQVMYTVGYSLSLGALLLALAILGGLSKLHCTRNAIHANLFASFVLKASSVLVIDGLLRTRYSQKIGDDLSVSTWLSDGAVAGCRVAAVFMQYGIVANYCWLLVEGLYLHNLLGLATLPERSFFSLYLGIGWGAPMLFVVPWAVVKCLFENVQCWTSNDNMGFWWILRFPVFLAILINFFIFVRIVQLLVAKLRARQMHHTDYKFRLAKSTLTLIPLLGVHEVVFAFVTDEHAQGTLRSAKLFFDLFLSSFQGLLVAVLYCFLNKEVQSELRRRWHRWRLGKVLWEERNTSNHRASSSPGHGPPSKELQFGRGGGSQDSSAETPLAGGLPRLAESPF

Compared with B1, B2 is 1.5-fold lower in Ki: 292 nM for the first, 193 nM for the second. The second binds more tightly here.

Going from B3 to B4, the Ki falls from 699 nM to 305 nM (2.3-fold).

B5 gave a Ki of 358 nM.

The binders below were run against T1, human glucose-dependent insulinotropic … (assay: SPA, displacement of [125I]-GIP from hGIPR membranes, 0.1% bacitracin).

B1 and B2 are within 1.5-fold of each other in Ki: 0.036 nM for the first, 0.0487 nM for the second.

First: B3
Second: B4
The Ki of the first is 1.6-fold lower: 0.0374 nM for the first, 0.0617 nM for the second. The first binds more tightly here.

Work on B5 yielded a Ki of 0.0293 nM.
